For two substances, Kd results are on record in paper PMC9667838.

This assay concerns the target Secreted form of the peptidase domain (PD) of ACE2 (human). Description: BLI.

Substance “Receptor binding domain (RBD) of the spike glycoprotein of SARS-CoV-2 Omicron subvariants BA.4/BA.5 (from UniProt P0DTC2 319-541) (domain or fragment)” came in with a Kd of 4.55 nM.

“Receptor binding domain (RBD) of the spike glycoprotein of SARS-CoV-2 Omicron subvariant BA.2 (from UniProt P0DTC2 319-541) (domain or fragment)” came in with a Kd of 4.15 nM.
